# Measured values from patent US20240116985A1, “STAPLED PEPTIDES AND METHODS THEREOF” (priority 2020, published 2024).
# Starred links: 1 amine or outer side, 2 acyl side, 3 side chain; linkers in the order of their positions; H or OH if unused. Positions of bridges follow the written chain, without caps; N, C: chain ends. Non-standard residues stand in square brackets, D forms with d. Primed or numbered codes have the meaning given here. PyrS2″ = (S)-3-amino-1-((pent-4-en-1-yloxy)carbonyl)pyrrolidine-3-carboxylic acid (stapling residue), C=CCCCOC(=O)N1CC[C@@](N[*:1])(C(=O)[*:2])C1; B5(16) = 2-amino-2-(pent-4-en-1-yl)hept-6-enoic acid = 2,2-bis(4-pentenyl)glycine (stitching residue), C=CCCCC(CCCC=C)(N[*:1])C(=O)[*:2]; B5(30) = 2-amino-2-(pent-4-en-1-yl)hept-6-enoic acid (2,2-bis(4-pentenyl)glycine, stitching residue), C=CCCCC(CCCC=C)(N[*:1])C(=O)[*:2]; B5(4) = 2,2-bis(4-pentenyl)glycine = 2-amino-2-(pent-4-en-1-yl)hept-6-enoic acid (stitching residue), C=CCCCC(CCCC=C)(N[*:1])C(=O)[*:2]; B5(5) = 2,2-bis(4-pentenyl)glycine, 2-amino-2-(pent-4-en-1-yl)hept-6-enoic acid (stitching residue), C=CCCCC(CCCC=C)(N[*:1])C(=O)[*:2]; PyrS2 = (S)-3-amino-1-((pent-4-en-1-yloxy)carbonyl)pyrrolidine-3-carboxylic acid, C=CCCCOC(=O)N1CC[C@@](N[*:1])(C(=O)[*:2])C1; B5(12) = 2-amino-2-(pent-4-en-1-yl)hept-6-enoic acid (two olefin side chains), C=CCCCC(CCCC=C)(N[*:1])C(=O)[*:2]; B5(3) = 2,2-bis(4-pentenyl)glycine (stitching residue), C=CCCCC(CCCC=C)(N[*:1])C(=O)[*:2]; Phe(3-COOH) = N[C@@H](Cc1cccc(C(=O)O)c1)C(=O)O; Phe(2-CF3) = N[C@@H](Cc1ccccc1C(F)(F)F)C(=O)O; Phe(2-Cl) = N[C@@H](Cc1ccccc1Cl)C(=O)O; Bta = N[C@@H](Cc1csc2ccccc12)C(=O)O; Lys(iPr) = CC(C)NCCCC[C@H](N)C(=O)O; αAllylPro = C=CC[C@@]1(C(=O)O)CCCN1; tBuAla = CC(C)(C)C[C@H](N)C(=O)O; 3Thi = N[C@@H](Cc1ccsc1)C(=O)O; Cha = N[C@@H](CC1CCCCC1)C(=O)O; S8 = C=CCCCCCC[C@](C)(N)C(=O)O; Thr(ol) = C[C@@H](O)[C@H](N)CO; Phe(ol) = N[C@H](CO)Cc1ccccc1; PyrS2(4) = not defined here
# B1: I-1083 (peptide)
# peptide: Ac-[αAllylPro]D[tBuAla][B5(3)]DDAAFN[PyrS2″][Phe(2-Cl)][Bta][Phe(ol)]
# modifications: staple 1-4, 4-11
# B2: I-1087 (peptide)
# peptide: Ac-[αAllylPro]D[tBuAla][B5(3)]DDAAFT[S8][Phe(2-Cl)][Bta]Q-NH2
# modifications: staple 1-4, 4-11; also: later eluting staple isomer
# B3: I-1082 (peptide)
# peptide: Ac-[αAllylPro]D[tBuAla][B5(3)]DDAAFN[PyrS2″][Phe(2-Cl)][Bta][Thr(ol)]
# modifications: staple 1-4, 4-11
# B4: I-1303 (peptide)
# peptide: Ac-[αAllylPro]D[tBuAla][B5(5)]DDAAFF[PyrS2][3Thi][Bta][Thr(ol)]
# modifications: staple 1-4, 4-11
# B5: I-1304 (peptide)
# peptide: Ac-[αAllylPro]N[tBuAla][B5(5)]DDAAFL[PyrS2][3Thi][Bta][Thr(ol)]
# modifications: staple 1-4, 4-11
# B6: I-1302 (peptide)
# peptide: Ac-[αAllylPro]D[tBuAla][B5(5)]DDAAFL[PyrS2][3Thi][Bta][Thr(ol)]
# modifications: staple 1-4, 4-11
# B7: I-1106 (peptide)
# peptide: Ac-[αAllylPro]D[tBuAla][B5(3)]DDAAFS[PyrS2″][Cha][Bta]S-NH2
# modifications: staple 1-4, 4-11
# B8: I-1105 (peptide)
# peptide: Ac-[αAllylPro]D[tBuAla][B5(3)]DDAA[Cha]S[PyrS2″]F[Bta]S-NH2
# modifications: staple 1-4, 4-11
# B9: I-1097 (peptide)
# peptide: Ac-[αAllylPro]D[tBuAla][B5(3)]DDAAFL[S8][Phe(2-Cl)][Bta][dT]-NH2
# modifications: staple 1-4, 4-11
# B10: I-1046 (peptide)
# peptide: Ac-[αAllylPro]D[Cha][B5(5)]DDAAFN[PyrS2″][Phe(2-Cl)][Bta]S-NH2
# modifications: staple 1-4, 4-11
# B11: I-1035 (peptide)
# peptide: Ac-[αAllylPro]D[tBuAla][B5(5)]DDAAFL[PyrS2″][Phe(2-Cl)][Bta][dT]-NH2
# modifications: staple 1-4, 4-11
# B12: I-1030 (peptide)
# peptide: Ac-[αAllylPro]D[tBuAla][B5(5)]EDAAFN[PyrS2″][Phe(2-Cl)][Bta][dT]-NH2
# modifications: staple 1-4, 4-11
# B13: I-1029 (peptide)
# peptide: Ac-[αAllylPro]E[tBuAla][B5(5)]DDAAFN[PyrS2″][Phe(2-Cl)][Bta][dT]-NH2
# modifications: staple 1-4, 4-11
# B14: I-1343 (peptide)
# peptide: Ac-[αAllylPro]D[tBuAla][B5(4)]D[Phe(3-COOH)]AAFF[PyrS2″][Phe(2-CF3)][Bta][Thr(ol)]
# modifications: staple 1-4, 4-11
# B15: I-1310 (peptide)
# peptide: Ac-[αAllylPro]D[Cha][B5(5)]DTAAFT[PyrS2″][Phe(2-Cl)][Bta][Thr(ol)]
# modifications: staple 1-4, 4-11
# B16: I-1307 (peptide)
# peptide: Ac-[αAllylPro]D[Cha][B5(5)]DDAAFL[PyrS2″][Phe(2-Cl)][Bta][Thr(ol)]
# modifications: staple 1-4, 4-11
# B17: I-1309 (peptide)
# peptide: Ac-[αAllylPro]D[tBuAla][B5(5)]DTAAFT[PyrS2″][Phe(2-Cl)][Bta][Thr(ol)]
# modifications: staple 1-4, 4-11
# B18: I-1311 (peptide)
# peptide: Ac-[αAllylPro]D[tBuAla][B5(5)]DDAAFF[PyrS2″][Phe(2-Cl)][Bta][Thr(ol)]
# modifications: staple 1-4, 4-11
# B19: I-1910 (peptide)
# peptide: Ac-[αAllylPro]D[tBuAla][B5(12)]D[Phe(3-COOH)]HAFL[PyrS2(4)][3Thi][Bta]F-NH2
# modifications: staple 1-4, 4-11; not fully specified; printed as Ac-PL3-Asp-Npg-B5-Asp-3COOHF-His-Ala-Phe-Leu-PyrS2-3Thi-BztA-Phe-NH2; reading uncertain
# B20: I-1892 (peptide)
# peptide: Ac-[αAllylPro]D[tBuAla][B5(30)]NRAAFN[PyrS2][3Thi][Bta]Q-NH2
# modifications: staple 1-4, 4-11; also: earlier-eluting HPLC isomer
# B21: I-1891 (peptide)
# peptide: Ac-[αAllylPro]D[tBuAla][B5(5)]DRAAFN[PyrS2][3Thi][Bta]Q-NH2
# modifications: staple 1-4, 4-11; not fully specified; printed as Ac-PL3-Asp-Npg-B5-Asp-Arg-Ala-Ala-Phe-Asn-PyrS2-3Thi-BztA-Gln-NH2
# B22: I-1909 (peptide)
# peptide: Ac-[αAllylPro]D[tBuAla][B5(12)]D[Phe(3-COOH)][Lys(iPr)]AFL[PyrS2(4)][3Thi][Bta]F-NH2
# modifications: staple 1-4, 4-11; not fully specified; printed as Ac-PL3-Asp-Npg-B5-Asp-3COOHF-iPrLys-Ala-Phe-Leu-PyrS2-3Thi-BztA-Phe-NH2; reading uncertain
# B23: I-1890 (peptide)
# peptide: Ac-[αAllylPro]D[tBuAla][B5(5)]DRAAFN[PyrS2][3Thi][Bta]Q-NH2
# modifications: staple 1-4, 4-11; not fully specified; printed as Ac-PL3-Asp-Npg-B5-Asp-Arg-Ala-Ala-Phe-Asn-PyrS2-3Thi-BztA-Gln-NH2
# B24: I-1911 (peptide)
# peptide: Ac-[αAllylPro]D[tBuAla][B5(12)]D[Phe(3-COOH)]KAFL[PyrS2(4)][3Thi][Bta]F-NH2
# modifications: staple 1-4, 4-11; not fully specified; printed as Ac-PL3-Asp-Npg-B5-Asp-3COOHF-Lys-Ala-Phe-Leu-PyrS2-3Thi-BztA-Phe-NH2; reading uncertain
# B25: I-1904 (peptide)
# peptide: Ac-[αAllylPro]D[tBuAla][B5(12)]D[Phe(3-COOH)]AAFL[PyrS2(4)][Phe(2-Cl)][Bta]N-NH2
# modifications: staple 1-4, 4-11; not fully specified; printed as Ac-PL3-Asp-Npg-B5-Asp-3COOHF-Ala-Ala-Phe-Leu-PyrS2-2C1F-BztA-Asn-NH2; reading uncertain
# Molecular target: full-length beta-Catenin (Uniprot ID P35222) (Homo sapiens (Human)) (UniProt P35222)
# Assay: fluorescence polarization competition; peptide titrated against 10 nM full-length beta-catenin + 10 nM 5FAM-TCF4(10-53)
# Target sequence in this assay (P35222 2-781 limits assumed): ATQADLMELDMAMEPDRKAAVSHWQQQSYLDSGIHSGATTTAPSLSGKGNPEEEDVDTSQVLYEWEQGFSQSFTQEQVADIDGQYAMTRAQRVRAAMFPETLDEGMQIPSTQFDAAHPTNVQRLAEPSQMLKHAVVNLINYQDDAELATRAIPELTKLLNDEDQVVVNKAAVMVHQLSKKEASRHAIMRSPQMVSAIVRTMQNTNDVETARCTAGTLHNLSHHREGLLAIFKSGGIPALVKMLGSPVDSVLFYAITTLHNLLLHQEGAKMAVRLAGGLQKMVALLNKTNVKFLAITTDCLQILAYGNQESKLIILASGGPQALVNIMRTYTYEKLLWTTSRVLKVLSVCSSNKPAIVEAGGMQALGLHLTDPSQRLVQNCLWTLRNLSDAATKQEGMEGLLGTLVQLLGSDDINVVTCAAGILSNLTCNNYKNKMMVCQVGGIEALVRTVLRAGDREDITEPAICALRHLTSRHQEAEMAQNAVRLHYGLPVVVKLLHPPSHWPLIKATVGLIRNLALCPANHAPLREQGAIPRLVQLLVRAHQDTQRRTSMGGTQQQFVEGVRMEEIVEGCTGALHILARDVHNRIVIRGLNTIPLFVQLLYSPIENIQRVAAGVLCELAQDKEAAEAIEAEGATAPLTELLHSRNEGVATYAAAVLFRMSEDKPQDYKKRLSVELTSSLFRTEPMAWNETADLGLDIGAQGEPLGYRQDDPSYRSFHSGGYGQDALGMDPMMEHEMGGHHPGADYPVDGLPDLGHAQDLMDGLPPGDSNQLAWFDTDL
row,IC50 [nM],Binder
1,8,B1
2,9,B2
3,5,B3

# Molecular target: full-length beta-Catenin (Uniprot ID P35222) (Homo sapiens (Human)) (UniProt P35222)
# Assay: fluorescence polarization competition; full-length beta-catenin + 5FAM-TCF4(10-53) probe
# Target sequence in this assay (P35222 whole entry, one chain of several): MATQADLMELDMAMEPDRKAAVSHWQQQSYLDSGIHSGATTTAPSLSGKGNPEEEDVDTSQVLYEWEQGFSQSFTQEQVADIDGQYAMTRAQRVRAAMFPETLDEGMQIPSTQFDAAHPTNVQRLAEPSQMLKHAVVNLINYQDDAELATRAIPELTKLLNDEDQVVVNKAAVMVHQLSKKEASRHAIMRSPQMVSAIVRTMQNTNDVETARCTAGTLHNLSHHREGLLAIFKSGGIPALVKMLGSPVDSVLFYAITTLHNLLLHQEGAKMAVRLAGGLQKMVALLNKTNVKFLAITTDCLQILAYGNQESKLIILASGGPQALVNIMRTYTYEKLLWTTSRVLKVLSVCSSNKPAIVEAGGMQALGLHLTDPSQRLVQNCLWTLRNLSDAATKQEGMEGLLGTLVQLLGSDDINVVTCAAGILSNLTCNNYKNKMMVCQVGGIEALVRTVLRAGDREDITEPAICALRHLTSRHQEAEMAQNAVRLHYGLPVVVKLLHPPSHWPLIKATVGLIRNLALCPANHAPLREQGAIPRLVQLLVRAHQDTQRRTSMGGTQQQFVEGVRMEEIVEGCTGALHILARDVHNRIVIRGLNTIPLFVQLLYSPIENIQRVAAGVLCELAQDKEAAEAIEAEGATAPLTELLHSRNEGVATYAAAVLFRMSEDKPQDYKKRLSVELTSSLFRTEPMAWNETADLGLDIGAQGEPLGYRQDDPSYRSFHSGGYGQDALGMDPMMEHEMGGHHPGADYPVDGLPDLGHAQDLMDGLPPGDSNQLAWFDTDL
row,EC50 [nM],Binder
1,86,B4
2,31,B5
3,45,B6

# Molecular target: full-length beta-Catenin (Uniprot ID P35222) (Homo sapiens (Human)) (UniProt P35222)
# Assay: fluorescence polarization competition; displacement of 5FAM-TCF4(10-53) from full-length beta-catenin
# Target sequence in this assay (P35222 whole entry, one chain of several): as above
row,IC50 [nM],Binder
1,23,B7
2,36,B8
3,40,B9

# Molecular target: full-length beta-Catenin (Uniprot ID P35222) (Homo sapiens (Human)) (UniProt P35222)
# Assay: fluorescence polarization competition; 10 nM full-length beta-catenin + 10 nM 5FAM-TCF4 10-53 as competitor probe
# Target sequence in this assay (P35222 2-781 limits assumed): as the sequence (P35222 2-781 limits assumed) above
row,EC50 [nM],Binder
1,5,B10
2,21,B11
3,507,B12
4,823,B13

# Molecular target: full-length beta-Catenin (Uniprot ID P35222) (Homo sapiens (Human)) (UniProt P35222)
# Assay: FP competition, full-length beta-catenin, competitor probe 5FAM-TCF4 10-53
# Target sequence in this assay (P35222 2-781 limits assumed): as above
row,IC50 [nM],Binder
1,150,B14

# Molecular target: Bcat-Halo (UniProt P35222)
# Sequence (P35222 whole entry): as the sequence (P35222 whole entry, one chain of several) above
# Assay: NanoBRET absolute IC50 in HEK293 cells; Bcat-Halo, competitor TCF4-Luc
row,IC50 [nM],Binder
1,10200,B11
2,> 20000,B12
3,> 20000,B13

# Molecular target: full-length beta-Catenin (Uniprot ID P35222) (Homo sapiens (Human)) (UniProt P35222)
# Assay: fluorescence polarization competition; full-length beta-catenin, competitor 5FAM-TCF4(10-53) probe
# Target sequence in this assay (P35222 2-781 limits assumed): as the sequence (P35222 2-781 limits assumed) above
row,EC50 [nM],Binder
1,150,B14
2,124,B15
3,21,B16
4,59,B17
5,38,B18

# Molecular target: Bcat-Halo (UniProt P35222)
# Assay: NanoBRET Abs IC50, HEK293 cells transfected with Bcat-Halo and TCF4-Luc (competitor: TCF4-Luc); cellular assay
row,IC50 [nM],Binder
1,20500,B10
2,10200,B11
3,> 20000,B12
4,> 20000,B13

# Molecular target: full-length beta-Catenin (Uniprot ID P35222) (Homo sapiens (Human)) (UniProt P35222)
# Assay: fluorescence polarization competition; full-length beta-catenin, competitor 5FAM-TCF4 10-53
# Target sequence in this assay (P35222 whole entry, one chain of several): as the sequence (P35222 whole entry, one chain of several) above
row,IC50 [nM],Binder
1,21,B11
2,507,B12
3,823,B13

# Molecular target: full-length beta-Catenin (Uniprot ID P35222) (Homo sapiens (Human)) (UniProt P35222)
# Assay: fluorescence polarization competition; full-length beta-catenin with 5FAM-TCF4(10-53) probe, peptide titrated
# Target sequence in this assay (P35222 whole entry, one chain of several): as above
row,IC50 [nM],Binder
1,5,B10

# Molecular target: Bcat-Halo (UniProt P35222)
# Assay: NanoBRET Abs IC50 in HEK293 cells; Bcat-Halo with TCF4-Luc as competitor
row,IC50 [nM],Binder
1,> 20000,B7
2,18800,B1
3,> 20000,B8
4,9300,B2
5,> 20000,B9
6,14100,B3

# Molecular target: full-length beta-Catenin (Uniprot ID P35222) (Homo sapiens (Human)) (UniProt P35222)
# Assay: fluorescence polarization competition; peptide titrated against 5FAM-TCF4(10-53) bound to full-length beta-catenin
# Target sequence in this assay (P35222 whole entry, one chain of several): as above
row,IC50 [nM],Binder
1,17,B19
2,1420,B20
3,40,B21
4,29,B22
5,31,B23
6,38,B24
7,15,B25

# Molecular target: full-length beta-Catenin (Uniprot ID P35222) (Homo sapiens (Human)) (UniProt P35222)
# Assay: cell-based or functional assay
# Target sequence in this assay (P35222 2-781 limits assumed): as the sequence (P35222 2-781 limits assumed) above
row,DLD1 reporter assay Abs IC50 [nM],Binder
1,> 20000,B11
2,> 20000,B12
3,> 20000,B13
4,> 20000,B2
5,> 20000,B9
6,4800,B3

# Molecular target: full-length beta-Catenin (Uniprot ID P35222) (Homo sapiens (Human)) (UniProt P35222)
# Assay: fluorescence polarization competition; full-length beta-catenin + 5FAM-TCF4(10-53) probe as competitor
# Target sequence in this assay (P35222 2-781 limits assumed): as above
row,EC50 [nM],Binder
1,23,B7
2,8,B1
3,36,B8
4,9,B2
5,40,B9
6,5,B3

# Molecular target: full-length beta-Catenin (Uniprot ID P35222) (Homo sapiens (Human)) (UniProt P35222)
# Assay: fluorescence polarization competition; full-length beta-catenin + 5FAM-TCF4 10-53 probe
row,IC50 [nM],Binder
1,86,B4
2,31,B5
3,124,B15
4,21,B16
5,59,B17
6,45,B6
7,38,B18
